# Measured values reported in patent EP1789452B1 (Janssen Pharmaceutica NV, dated 2006).
# Ends that are not written are not given here.
# T1: human LGR7 (human, UniProt Q9HBX9 1-757)
# T1 construct: whole, on cells
# T1 sequence (looked up): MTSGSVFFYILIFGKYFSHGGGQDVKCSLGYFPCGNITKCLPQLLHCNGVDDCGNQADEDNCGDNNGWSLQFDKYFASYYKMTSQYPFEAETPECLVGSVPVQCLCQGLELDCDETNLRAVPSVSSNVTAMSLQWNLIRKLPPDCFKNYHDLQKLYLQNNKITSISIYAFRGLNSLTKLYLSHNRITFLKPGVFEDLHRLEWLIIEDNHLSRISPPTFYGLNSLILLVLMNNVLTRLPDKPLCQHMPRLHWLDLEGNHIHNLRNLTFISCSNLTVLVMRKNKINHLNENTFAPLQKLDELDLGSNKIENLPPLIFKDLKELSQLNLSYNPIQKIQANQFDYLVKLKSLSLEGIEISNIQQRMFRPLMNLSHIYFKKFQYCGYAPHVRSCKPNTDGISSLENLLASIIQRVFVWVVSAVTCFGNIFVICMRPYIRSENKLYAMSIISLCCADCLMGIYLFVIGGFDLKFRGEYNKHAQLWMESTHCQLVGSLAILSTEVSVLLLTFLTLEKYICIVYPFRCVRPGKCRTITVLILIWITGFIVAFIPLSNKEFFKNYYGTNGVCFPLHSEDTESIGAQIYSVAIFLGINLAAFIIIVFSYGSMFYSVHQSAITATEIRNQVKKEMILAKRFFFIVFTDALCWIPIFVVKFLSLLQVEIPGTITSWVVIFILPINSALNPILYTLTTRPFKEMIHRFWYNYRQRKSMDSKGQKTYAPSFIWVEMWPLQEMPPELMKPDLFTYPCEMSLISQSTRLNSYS
# T2: human GPCR135 (human, UniProt Q9NSD7 1-469)
# T2 sequence: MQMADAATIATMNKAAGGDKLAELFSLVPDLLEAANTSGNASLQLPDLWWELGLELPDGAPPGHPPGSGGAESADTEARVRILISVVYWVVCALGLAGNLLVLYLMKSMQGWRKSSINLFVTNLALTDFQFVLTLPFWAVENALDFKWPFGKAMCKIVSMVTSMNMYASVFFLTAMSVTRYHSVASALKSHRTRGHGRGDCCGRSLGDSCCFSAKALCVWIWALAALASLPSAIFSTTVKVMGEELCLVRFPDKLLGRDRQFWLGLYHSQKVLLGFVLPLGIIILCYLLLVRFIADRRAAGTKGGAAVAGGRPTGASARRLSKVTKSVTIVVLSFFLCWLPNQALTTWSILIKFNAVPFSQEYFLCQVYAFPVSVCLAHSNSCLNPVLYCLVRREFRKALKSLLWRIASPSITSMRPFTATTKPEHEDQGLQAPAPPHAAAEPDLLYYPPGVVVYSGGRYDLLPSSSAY
# T3: rat LGR7 (rat, UniProt Q6R6I6 1-758)
# T3 construct: whole, on cells; Membranes of COS-7 cells transiently expressing rat LGR7; also called rat recombinant LGR7
# T3 sequence (looked up): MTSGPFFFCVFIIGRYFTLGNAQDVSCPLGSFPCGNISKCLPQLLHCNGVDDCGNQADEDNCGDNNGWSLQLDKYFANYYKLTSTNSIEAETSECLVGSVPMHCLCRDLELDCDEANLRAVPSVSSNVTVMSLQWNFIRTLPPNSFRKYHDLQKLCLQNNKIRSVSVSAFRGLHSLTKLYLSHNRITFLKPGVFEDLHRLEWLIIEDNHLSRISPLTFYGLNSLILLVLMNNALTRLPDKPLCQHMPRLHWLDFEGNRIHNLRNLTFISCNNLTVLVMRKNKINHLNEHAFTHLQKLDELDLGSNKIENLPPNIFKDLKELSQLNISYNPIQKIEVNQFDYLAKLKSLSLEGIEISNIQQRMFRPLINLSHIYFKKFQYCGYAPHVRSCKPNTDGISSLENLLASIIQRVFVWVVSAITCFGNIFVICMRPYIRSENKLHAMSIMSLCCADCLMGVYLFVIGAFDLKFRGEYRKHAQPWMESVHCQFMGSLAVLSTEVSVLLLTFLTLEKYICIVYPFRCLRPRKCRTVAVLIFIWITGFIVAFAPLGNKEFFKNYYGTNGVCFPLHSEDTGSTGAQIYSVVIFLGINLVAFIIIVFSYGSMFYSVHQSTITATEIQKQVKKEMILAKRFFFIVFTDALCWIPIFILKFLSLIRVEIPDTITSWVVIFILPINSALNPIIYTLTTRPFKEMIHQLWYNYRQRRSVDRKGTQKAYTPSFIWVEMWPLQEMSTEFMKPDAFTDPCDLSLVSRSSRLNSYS
# B1: Relaxin-3/INSL6 (R3/I6) chimeric polypeptide (ligand, human)
# chain 1: RAAPYGVRLCGREFIRAVIFTCGGSRW
# chain 2: GYSEKCCLTGCTKEELSIAC
# modifications: disulfide (positions not given here)
# notes: domain: A-chain; Two chains joined by disulfide bonds; FLAG tag removed
# B2: Relaxin-3/Relaxin-1 (R3/R1) chimeric polypeptide (ligand, human)
# chain 1: RAAPYGVRLCGREFIRAVIFTCGGSRW
# chain 2: RPYVALFEKCCLIGCTKRSLAKYC
# modifications: disulfide (positions not given here)
# notes: domain: A-chain; Two chains joined by disulfide bonds; Made in COS-7 cells with furin, FLAG tag removed with enterokinase
# B3: Relaxin-3/Relaxin-2 (R3/R2) chimeric polypeptide (ligand, human)
# chain 1: RAAPYGVRLCGREFIRAVIFTCGGSRW
# chain 2: QLYSALANKCCHVGCTKRSLARFC
# modifications: disulfide (positions not given here); also: two chains joined by disulfide bonds, pairing not given here
# notes: as for B1
# B4: Relaxin-3/INSL3 (R3/I3) chimeric polypeptide (ligand, human)
# chain 1: RAAPYGVRLCGREFIRAVIFTCGGSRW
# chain 2: NPARYCCLSGCTQQDLLTLC
# modifications: disulfide (positions not given here)
# notes: as for B1
# B5: human relaxin-3 (ligand)
# chain 1: RAAPYGVRLCGREFIRAVIFTCGGSRW
# chain 2: DVLAGLSSSCCKWGCSKSEISSLC
# modifications: ends and bridges not checked; also: also used as 125I-labelled tracer
# notes: domain: A-chain; Mature two-chain hormone; also called R3; INSL7
# B6: Relaxin-3/INSL5 (R3/I5) chimeric polypeptide (ligand)
# chain 1: RAAPYGVRLCGREFIRAVIFTCGGSRW
# chain 2: DLQTLCCTDGCSMTDLSALC
# modifications: disulfide (positions not given here); also: two chains joined by disulfide bonds, places not given here
# notes: Two chains joined by disulfide bonds; FLAG tag removed with enterokinase; also called R3/I5 chimera; I5/R3
# B7: Relaxin-3/INSL4 (R3/I4) chimeric polypeptide (ligand, human)
# chain 1: RAAPYGVRLCGREFIRAVIFTCGGSRW
# chain 2: FDPFCCEVICDDGTSVKLC
# modifications: disulfide (positions not given here)
# notes: as for B1
# B8: human INSL3 (ligand)
# chain 1: PTPEMREKLCGHHFVRALVRVCGGPRWSTEA
# chain 2: AAATNPARYCCLSGCTQQDLLTLCPY
# modifications: ends and bridges not checked; also: also used as 125I-labelled tracer
# Legend:
# human LGR7 [1] = target: T1, human LGR7; experiment: competition with 100 pM [125I]-relaxin-3, live COS-7 cells with human LGR7
# human GPCR142 [2] = target: T4, human GPCR142 (human, UniProt Q8TDU9 1-374); experiment: competition with 100 pM [125I]-relaxin-3, COS-7 membranes with human GPCR142
# human LGR8 [3] = target: T5, human LGR8 (human, UniProt Q8WXD0 1-754); experiment: competition with 100 pM [125I]-INSL3, live COS-7 cells expressing human LGR8; ND denotes no activity was detected
# T5 construct: whole, on cells; also called LGRB
# human GPCR142 [4] = target: T4, human GPCR142; experiment: cell-based or functional assay
# human LGR7 [5] = target: T1, human LGR7; experiment: cell-based or functional assay
# human GPCR135 [6] = target: T2, human GPCR135; experiment: cell-based or functional assay
# human LGR7 [7] = target: T1, human LGR7; experiment: radioligand competition, human LGR7 (Table 1 prints 12.9)
# human GPCR135 [8] = target: T2, human GPCR135; experiment: competition with 100 pM [125I]-relaxin-3, COS-7 membranes with human GPCR135
# human GPCR142 [9] = target: T4, human GPCR142; experiment: cell-based or functional assay; remark: listed apart in the source
# human GPCR135 [10] = target: T2, human GPCR135; experiment: cell-based or functional assay; remark: listed apart in the source
# human LGR8 [11] = target: T5, human LGR8; experiment: competition with 100 pM [125I]-INSL3, live COS-7 cells with human LGR8
# human LGR8 [12] = target: T5, human LGR8; experiment: cell-based or functional assay
# human LGR8 [13] = target: T5, human LGR8; experiment: radioligand competition with [125I]-INSL3, human LGR8; lower end tied to R3/I3 by Table 1
# human LGR7 [14] = target: T1, human LGR7; experiment: cell-based or functional assay; remark: listed apart in the source
# rat GPCR135 [15] = target: T6, rat GPCR135 (rat, UniProt Q5Y987 29-469); experiment: quantitative receptor autoradiography, displacement of 7 pM [125I]R3/I5 from rat brain sections; olfactory bulb; unit from paragraph 235
# T6 construct: whole, on cells; also called rat recombinant GPCR135
# rat GPCR135 [16] = target: T6, rat GPCR135; experiment: quantitative receptor autoradiography, displacement of 7 pM [125I]R3/I5 from rat brain sections; cortex; unit from paragraph 235
# rat GPCR135 [17] = target: T6, rat GPCR135; experiment: quantitative receptor autoradiography, displacement of 7 pM [125I]R3/I5 from rat brain sections; superior colliculus; unit from paragraph 235
# rat GPCR135 [18] = target: T6, rat GPCR135; experiment: competition with 100 pM [125I] human R3, COS-7 membranes with rat GPCR135
# rat GPCR135 [19] = target: T6, rat GPCR135; experiment: ratio of IC50 values from radioligand competition on rat GPCR135 and rat LGR7
# human LGR7 [20] = target: T1, human LGR7; experiment: radioligand competition, human LGR7 (Table 1 prints 724 nM)
# rat LGR7 = target: T3, rat LGR7; experiment: competition with 100 pM [125I] human relaxin-2, COS-7 membranes with rat LGR7
# human LGR7 [21] = target: T1, human LGR7; experiment: discussion of the radioligand binding results of Examples 3-5
# human GPCR135 [22] = target: T2, human GPCR135; experiment: as above
# human LGR7 [23] = target: T1, human LGR7; experiment: competition with 100 pM [125I]-relaxin-3, live COS-7 cells expressing human LGR7; ND denotes no activity was detected
# human LGR8 [24] = target: T5, human LGR8; experiment: cell-based or functional assay; remark: listed apart in the source
# T5 sequence (Q8WXD0 whole entry): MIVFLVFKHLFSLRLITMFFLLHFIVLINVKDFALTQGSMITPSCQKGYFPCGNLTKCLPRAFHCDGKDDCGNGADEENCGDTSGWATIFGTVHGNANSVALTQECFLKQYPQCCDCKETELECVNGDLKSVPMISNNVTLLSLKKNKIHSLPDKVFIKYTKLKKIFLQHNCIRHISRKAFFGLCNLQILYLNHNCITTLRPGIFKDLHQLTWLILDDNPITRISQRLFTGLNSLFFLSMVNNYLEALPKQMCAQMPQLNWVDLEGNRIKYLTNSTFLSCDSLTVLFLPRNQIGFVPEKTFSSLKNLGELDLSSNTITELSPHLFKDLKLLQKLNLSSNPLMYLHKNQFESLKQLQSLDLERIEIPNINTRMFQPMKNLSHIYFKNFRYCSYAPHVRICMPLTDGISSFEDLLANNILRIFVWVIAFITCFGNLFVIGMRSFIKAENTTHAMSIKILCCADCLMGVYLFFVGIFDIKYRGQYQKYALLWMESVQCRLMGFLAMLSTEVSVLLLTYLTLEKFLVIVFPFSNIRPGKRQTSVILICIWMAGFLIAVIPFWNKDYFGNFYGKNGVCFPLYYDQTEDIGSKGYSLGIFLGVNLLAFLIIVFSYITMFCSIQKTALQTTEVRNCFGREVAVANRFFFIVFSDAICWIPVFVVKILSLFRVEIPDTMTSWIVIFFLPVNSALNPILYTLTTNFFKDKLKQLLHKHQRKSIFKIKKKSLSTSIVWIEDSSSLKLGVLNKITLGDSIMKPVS
# T4 sequence (Q8TDU9 whole entry L329S, form in doubt): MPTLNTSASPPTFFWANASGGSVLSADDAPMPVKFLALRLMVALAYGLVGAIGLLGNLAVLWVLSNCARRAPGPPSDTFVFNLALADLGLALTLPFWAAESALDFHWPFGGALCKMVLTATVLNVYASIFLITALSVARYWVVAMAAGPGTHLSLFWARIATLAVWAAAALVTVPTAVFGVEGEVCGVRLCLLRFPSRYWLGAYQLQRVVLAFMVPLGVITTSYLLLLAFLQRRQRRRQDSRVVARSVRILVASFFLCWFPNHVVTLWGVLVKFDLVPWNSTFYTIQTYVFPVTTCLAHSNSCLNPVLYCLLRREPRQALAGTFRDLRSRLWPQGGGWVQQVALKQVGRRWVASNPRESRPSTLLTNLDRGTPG
Binder,IC50 (human LGR7 [1]) [nM],IC50 (human GPCR142 [2]) [nM],binding result (human LGR8 [3]),"EC50, inhibition of forskolin stimulated β-galactosidase expression (human GPCR142 [4]) [nM]","EC50, ligand stimulated β-galactosidase expression (human LGR7 [5]) [nM]","EC50, inhibition of forskolin stimulated β-galactosidase expression (human GPCR135 [6]) [nM]",IC50 (human GPCR135 [8]) [nM],IC50 (human LGR8 [11]) [nM],"EC50, ligand stimulated β-galactosidase expression (human LGR8 [12]) [nM]",also measured
B1,12.9,11.3,no binding,11.2,13.7,8.4,9.5,–,–,IC50 (human LGR7 [7]): 15 nM
RAAPYGVRLCGREFIRAVIFTCGGSRW [synthetic human relaxin-3 B-chain],–,–,–,–,–,–,–,–,–,"inhibition of forskolin-stimulated β-galactosidase activity in SK-N-MC/β-gal cells, EC50 (human GPCR142 [9]): 125 nM; inhibition of forskolin-stimulated β-galactosidase activity in SK-N-MC/β-gal cells, EC50 (human GPCR135 [10]): 88 nM"
B2,5.1,2.6,–,–,4.5,1.8,2.9,> 1000,> 1000,–
B3,1.5,1.8,–,1.4,1.1,1.1,1.2,615,575,–
B4,2.3,3.5,–,2.9,2.5,–,–,475,258,IC50 (human LGR8 [13]): 500 nM
B5,–,–,–,–,–,–,–,–,–,"stimulation of β-galactosidase activity in SK-N-MC/β-gal cells, EC50 (human LGR7 [14]): 1.4 nM; IC50 (rat GPCR135 [15]): 0.3 nM; IC50 (rat GPCR135 [16]): 0.4 nM; IC50 (rat GPCR135 [17]): 0.3 nM"
B6,724,1.4,no binding,0.91,412,0.45,0.68,–,–,IC50 (rat GPCR135 [18]): 0.5 nM; fold selective over rat LGR7 (rat GPCR135 [19]): 800 fold; IC50 (human LGR7 [20]): ~500 nM; IC50 (rat LGR7): > 400 nM; Kd (human LGR7 [21]): ~500 nM; Kd (human GPCR135 [22]): ~0.5 nM
B7,–,> 1000,no binding,> 1000,–,> 1000,> 1000,–,–,binding result (human LGR7 [23]): no binding (tested: 1 µM)
B8,–,–,–,–,–,–,–,–,–,"induction of β-galactosidase activity in SK-N-MC/β-gal cells, EC50 (human LGR8 [24]): 0.16 nM"
